# Assay results published in patent US20140377324A1, “Pharmaceutical Composition Comprising miRNA-100 And Its Use In The Modulation of Blood Vessel Growth and Endothelial Inflammation” (Universitatsklinikum Freiburg, priority 2009, published 2014).
# Columns and labels:
# E-Selectin (SELE) = test: Agilent microarray after miR-100 overexpression in endothelial cells, E-Selectin; type: cell-based, human; conditions: 48 hours after transfection vs control oligonucleotide, FIG. 12
# Experimental: (§1) After discovering the high baseline expression of miR-100 in endothelial cells and its downregulation in response to vascular injury and ischemia, the function of this microRNA in endothelial cells (EC) was investigated. Therefore, miR-100 was overexpressed in EC by transfecting a synthetic miR-100 precursor molecule (pre-mir) and analysed global mRNA gene expression changes compared to transfection with a control oligonucleotide at 48 hours after transfection on a human Agilent 4×44 k microarray platform.
# (§2) Microarray results were analysed both on individual gene level as well as by biological pathway analysis using the “Panther Pathways Analysis” Tool that tests changes in gene expression for enrichment of specific biological pathways or cellular functions.
# (§3) Endothelial cells were transfected with miR-100 precursor oligonucleotides. Total RNA was isolated after 48 h for microarray analysis of global gene expression.
# E-Selectin [1] = test: E-Selectin mRNA expression in endothelial cells (Taqman PCR); type: cell-based, human; conditions: vs scrambled premiR control; FIG. 13
# Experimental: (§4) Human endothelial cells were transfected with premiR-100 and scrambled premiR control oligonucleotides. After RNA isolation, the relative expression rate of the mRNA of different adhesion molecules was measured using the Stem loop Taqman PCR (P value≦0.005).
# HUVECs / human PBMCs = test: Leukocyte-HUVEC interaction under flow conditions (flow chamber); type: cell-based; conditions: TNF-alpha 30 ng/ml for 24 h, flow 1 dyn/cm^2; FIG. 15
# Experimental: HUVECs were grown to confluence, transfected with either anti-miR-100 or pre-Mir-100 oligonucelotides or scrambled controls and stimulated with TNF-alpha 30 ng/ml for 24 h. Human PBMCs (HPBMCs) were obtained from buffy coats of healthy donors by Ficoll-Hypaque density gradient centrifugation. The flow chamber was assembled and placed onto an inverted microscope stage, and freshly isolated HPBMCs (1×10^6/ml) were perfused across the endothelial monolayers. In all experiments, leukocyte interactions were determined over 105 min at 1 dyn/cm^2. Cells interacting on the surface of the endothelium were visualized and recorded using phase-contrast microscopy.
# To test if this change in expression results in a functional difference in leukocyte rolling and adhesion to the endothelial surface, the attachment of isolated peripheral blood mononuclear cells (PBMC) to transfected endothelial cells was investigated under physiologic flow conditions in a flow chamber apparatus.
# A physiological venous blood flow (1 dynes/cm^2) was induced by a flow chamber apparatus and the number of rolling or adherent peripheral blood mononuclear cells (PBMCs) was counted.
# endothelial cells [2] = test: BrdU-Incorporation (proliferation), endothelial cells; type: cell-based, human; conditions: FIG. 3
# Source text: (§5) To assess whether the observed differences were secondary to effects on cellular viability, endothelial cell apoptosis and proliferation following miR-100 modulation was checked. […] DNA-synthesis rate was further analyzed by measuring BrdU-Incorporation, which correlates well with cellular proliferation.
# endothelial cells [3] = test: three-dimensional spheroid culture assay, endothelial sprouting; type: cell-based, human
# [4] = system: vascular smooth muscle cells; test: BrdU-Incorporation (proliferation), smooth muscle cells; type: cell-based, human; conditions: FIG. 4
# VCAM-1 [5] = test: VCAM-1 protein expression in endothelial cells (Western blot); type: cell-based, human
# Experimental: (§6) MiRNA-100 was overexpressed in human endothelial cells followed by protein isolation. Using Western blots, the protein expression of VCAM-1, ICAM-1 and E-Selectin was determined. FIGS. 14A and B show the ratio between volume intensity of the protein-samples and the loading control (β-tubulin) for [A] the baseline expression and [B] the expression after 24 h TNF-α stimulation.
# E-Selectin [6] = test: E-Selectin protein expression in endothelial cells (Western blot); type: cell-based, human
# Experimental: as §6
# VCAM-1 [7] = test: VCAM-1 mRNA expression in endothelial cells (Taqman PCR); type: cell-based, human; conditions: vs scrambled premiR control; FIG. 13
# Experimental: as §4
# HEK293 cells = test: HEK cell proliferation, rescue-experiment with mTOR plasmids; type: cell-based, human; conditions: 8nM oligonucleotide; FIG. 7
# Experimental: To investigate if the repression of mTOR was responsible for the observed attenuation of cellular proliferation by miR-100, a rescue-experiment was performed by transfecting mTOR-coding plasmids in combination with pre-miR-100.
# (§7) For transfection with pre-miR microRNA precursor molecules or anti-miRmiRNA inhibitors (all Ambion), cells were cultured to 70% confluence and transfected with 8nM pre-miR-100 or anti-miR-100 oligonucleotides using Lipofectamin RNAiMax (invitrogen) according to the manufacturers instructions. For transfection of HEK293 cells with mTOR plasmids, 2 μg DNA per 3×10E5 cells was transfected with Fugene 6 transfection reagent (Roche). For double transfection of plasmids with miRNA-precursors and inhibitors, pre- and anti-miRs were added to the plasmid/Fugene transfection mix in the same final concentrations as stated above. mTOR (Acc. NM004958) full length (SKU SC124066) and ORF-constructs (SKU RC220457) were obtained from the Origene collection (Origene, Rockville, Md.).
# Due to the large plasmid size of mTOR, it was not possible to achieve a sufficient transfection rate in endothelial cells without procedure-related toxic effects and therefore the easily transfected HEK-cells were chosen as a culture model, where the miR-100 effects on proliferation seen in endothelial cells could be reproduced (FIG. 7).
# VCAM-1 [8] = test: Agilent microarray after miR-100 overexpression in endothelial cells, VCAM-1; type: cell-based, human; conditions: 48 hours after transfection vs control oligonucleotide, FIG. 12
# Experimental: as §1, §2, §3
# ICAM-1 [9] = test: ICAM-1 protein expression in endothelial cells (Western blot); type: cell-based, human
# Experimental: as §6
# endothelial cells [10] = test: planar matrigel assay, endothelial network formation; type: cell-based, human
# miR-100 = miR-100 level by quantitative stem-loop RT-PCR after pre-miR/anti-miR transfection; type: cell-based, human; conditions: 24 h following transfection; vs irrelevant-sequence controls; FIG. 2
# Source text: To verify the expression of miR-100 in pure cell populations of the vascular wall, stem-loop RT-PCR was used for total RNA-isolates from cultured human endothelial cells (HUVECs) and human aortic vascular smooth muscle cells.
# MicoRNA expression was validated by quantitative stem-loop PCR technology (TaqMan MicroRNA Assays, Applied Biosystems, Foster City, Calif.). The use of target-specific reverse transcription primers and TaqMan hybridization probes allows the specific detection of mature microRNAs. MicroRNA expression was normalized to the expression of the small RNAs rnu19 and rnu48.
# miR-100 was strongly expressed in both cell types. To investigate a potential role of miR-100 for angiogenesis, miR-100 was overexpressed and silenced in these cell types by transfecting specific miR-100 precursors (pre-miRs) or antisense-molecules (anti-miRs), respectively. […] Pre- and anti-miRs with an irrelevant nucleotide sequence served as negative controls. There was no significant difference in cellular viability following transfection with the different compounds.
# For transfection with pre-miR microRNA precursor molecules or anti-miRmiRNA inhibitors (all Ambion), cells were cultured to 70% confluence and transfected with 8nM pre-miR-100 or anti-miR-100 oligonucleotides using Lipofectamin RNAiMax (invitrogen) according to the manufacturers instructions. […]
# endothelial cells [11] = test: flow cytometric quantification of Annexin V-staining (apoptosis); type: cell-based, human; conditions: compared to irrelevant control sequence, FIG. 3
# Source text: as §5
# ICAM-1 [12] = test: ICAM-1 mRNA expression in endothelial cells (Taqman PCR); type: cell-based, human; conditions: vs scrambled premiR control; FIG. 13
# Experimental: as §4
# mTOR (FRAP1-gene) = test: microarray based gene expression analysis of endothelial cells following miR-100 overexpression (mTOR); type: cell-based, human
# Source text: Using a combination of bioinformatic prediction algorithms and microarray based gene expression analysis of endothelial cells following miR-100 overexpression, it was searched for potential target genes of miR-100 that could be responsible for the observed effects.
# mTOR = mTOR expression in endothelial cells after miR-100 modulation; type: cell-based, human; conditions: FIG. 5
# Experimental: The binding site of miR-100 in the 3′-UTR of mTOR is shown in (FIG. 6.) In FIG. 6 the sequence designated hsa-miR-100 corresponds to SEQ ID NO:1 and the sequence having the designation mTOR 3′UTR corresponds to SEQ ID NO:7.
# as §7
# [13] = system: cultured cancer cells (oral squamous cell carcinoma); conditions: Henson et al. 2009; cited from earlier work
# [14] = after 24 h TNF-α stimulation, FIG. 14B
molecule,measurement,setting,value
"pre-miR-100: synthetic miR-100 precursor molecule, SEQ ID No. 8, used to overexpress miR-100; processed to mature miRNA-100 (SEQ ID No: 9) (nucleic acid, listed as RNA, chemistry not given here) CCUGUUGCCACAAACCCGUAGAUCCGAACUUGUGGUAUUAGUCCGCACAAGCUUGUAUCUAUAGGUAUGUGUCUGUUAGG",E-Selectin (SELE) gene expression,E-Selectin (SELE),strong downregulation
same,E-Selectin mRNA relative expression,E-Selectin [1],decrease
same,leukocyte (PBMC) adhesion to transfected endothelial cells,HUVECs / human PBMCs,significantly attenuates leukocyte adhesion
same,endothelial cell proliferation (DNA-synthesis rate),endothelial cells [2],significant attenuation of endothelial cell proliferation
same,endothelial sprouting (total sprout length),endothelial cells [3],significant inhibitory effect
same,"inhibitory effect on proliferation, smooth muscle cells compared with endothelial cells",[4],more pronounced in endothelial cells than in smooth muscle cells
same,"VCAM-1 protein, upregulation after TNF-α stimulation",VCAM-1 [5]; [14],blunts the upregulation in response to inflammatory stimuli
same,"VCAM-1 protein, baseline expression","VCAM-1 [5]; ratio to β-tubulin, FIG. 14A",decreases baseline expression
same,"E-Selectin protein, upregulation after TNF-α stimulation",E-Selectin [6]; [14],blunts the upregulation in response to inflammatory stimuli
same,"E-Selectin protein, baseline expression",E-Selectin [6]; ratio to β-tubulin,decreases baseline expression
same,VCAM-1 mRNA relative expression,VCAM-1 [7],decrease
same,cell proliferation of HEK cells,HEK293 cells,anti-proliferative effect
same,VCAM-1 gene expression,VCAM-1 [8],strong downregulation
same,"ICAM-1 protein, upregulation after TNF-α stimulation",ICAM-1 [9]; [14],blunts the upregulation in response to inflammatory stimuli
same,"ICAM-1 protein, baseline expression","ICAM-1 [9]; ratio to β-tubulin, FIG. 14A",decreases baseline expression
same,endothelial network formation,endothelial cells [10],significant inhibitory effect
same,detectable miR-100 (relative miR-100 expression),miR-100,strong increase in detectable miR-100
same,endothelial cell apoptosis,endothelial cells [11],slight increase in endothelial cell apoptosis
same,ICAM-1 mRNA relative expression,ICAM-1 [12],decrease
same,mTOR (FRAP1) gene expression,mTOR (FRAP1-gene),downregulated
same,mTOR-expression on both mRNA as well as protein level,mTOR,significantly repressed
same,cell proliferation,[13],significantly reduced cell proliferation
